Where a chain is given by its changes, count along the chain named. Where two headings read alike, the source gives them in different places. One block for each binder: values may come before it. Non-standard residues stand in square brackets, D forms with d. No end group written: not given here. *: point of attachment. Biotin = O=C1N[C@H]2[C@H](CS[C@H]2CCCCC(=O)*)N1; pS = N[C@@H](COP(=O)(O)O)C(=O)O; code U = not defined here; code X = not defined here
Key:
[1] = target: T1, full length human tau SEQ ID NO: 01 (human, UniProt P10636 1-758); assay: ELISA, non-phosphorylated full-length human tau coated at 1 ug/ml, antibody titrated
T1 construct: not phosphorylated; also called tau protein; non-phosphorylated full-length human tau

[2] = target: T2, biotinylated pTau fragment pTau(416-430)[Bi-XUUUU-416; pSer-422]amid (human, reading uncertain; also: printed as pTau(416-430)[Bi-XUUUU-416; pSer-422]amid); assay: SPR direct assay (Example 11), Fab over immobilized biotinylated fragment, 25 C
T2 construct: also called Tau(pS422) fragment
T2 peptide: {Biotin-code X-code U-code U-code U-code U}-SIDMVD[pS]PQLATLAD-NH2
Procedure: Binding of anti-pTau antibody Fab fragment samples to pTau fragment was investigated by surface plasmon resonance using a BIACORE T200 instrument (GE Healthcare). […] Running and dilution buffer for immobilization was HBS-N, pH 7.4 (10 mM HEPES, 150 mM NaCl, pH 7.4, GE Healthcare). For the following kinetic characterization, running and dilution buffer was PBS-T (10 mM phosphate buffered saline including 0.05% Tween 20), pH 7.4. The sample block was set to 12° C. The flow cell was set to 25° C. and primed with running buffer twice.
Association was measured by injection of the anti-pTau antibody Fab fragment samples at various concentrations in solution for 180 seconds at a flow of 30 μl/min starting with 100 nM in 1:3 dilutions. The dissociation phase was monitored for up to 600 seconds and triggered by switching from the sample solution to running buffer. The surface was regenerated by washing with one injection of 10 mM glycine solution, pH 1.7 for 60 seconds at a flow rate of 10 μl/minute. Bulk refractive index differences were corrected by subtracting the response obtained from a blank surface. Blank injections were also subtracted (=double referencing). For calculation of KD and other kinetic parameters the Langmuir 1:1 model was used.

[3] = target: T3, Tau(pS422) fragment SEQ ID NO: 03 (human); assay: SPR capture assay (Example 10), 25 C
T3 construct: also called phosphorylated tau peptide
T3 peptide: SIDMVD[pS]PQLATLAD
Procedure: Binding of pTau fragment to anti-pTau antibodies was investigated by surface plasmon resonance using a BIACORE T200 instrument (GE Healthcare). Around 10,000 resonance units (RU) of the capturing system (10 μg/ml goat anti-human Fc antibody; Jackson Immuno Research; Order Code: JIR 109-005-098) were coupled on a CM5 chip (GE Healthcare BR-1005-30) at pH 5.0 by using an amine coupling kit supplied by the GE Healthcare. As running buffer, HBS-N pH 7.4 (10 mM HEPES, 150 mM NaCl, pH 7.4, GE Healthcare) was used. For measurement of the samples, running and dilution buffer was PBS-T (10 mM phosphate buffered saline including 0.05% Tween 20), pH 7.4. The sample block was set to 12° C. The flow cell was set to 25° C. and primed with running buffer twice.

[4] = target: T4, tau peptide residues 416 to 430 of SEQ ID NO: 01 (human, also: biotinylated, site not given here); assay: ELISA
T4 construct: also called non-phosphorylated tau peptide
T4 peptide: SIDMVDSPQLATLAD
Procedure: (§1) Non-biotinylated peptide/protein/aggregate was added to non-coated Maxisorb plates, biotinylated peptide/protein/aggregate in PBS was added to streptavidin-coated Maxisorb plates, and plates were incubated over-night. The supernatant was discarded and the wells washed three times with 90 μl wash buffer (1x PBS/0.1% Tween 20). Remaining reactive spots were blocked with blocking buffer (1x PBS/2% BSA (Bovine Serum Albumin Fraction V, fatty acid free, Roche, Cat. No.: 10735078001)/0.05% Tween 20) by incubating for 1 hour. The supernatant was discarded and the wells washed three times with 90 μl wash buffer. Samples and control antibody were prepared in 12 dilutions (1:2) in ELISA buffer (1×PBS/0.5% BSA (Bovine Serum Albumin Fraction V, fatty acid free, Roche, Cat. […] The incubation time was 60 minutes at room temperature on a shaker. The supernatant was discarded and the wells washed three times with 90 μl wash buffer. Solutions of secondary antibody were prepared in ELISA buffer. A total of 25 μl antibody-mix was transferred to all wells of the assay plate and the plate was thereafter incubated on shaker for 60 minutes at room temperature. The supernatant was discarded and the wells were washed three times with 90 μl wash buffer. 25 μl of ABTS solution was added to all wells. The absorbance was read at 405 nm-492 nm.

[5] = target: T1, full length human tau SEQ ID NO: 01; assay: ELISA
Procedure: as §1

[6] = target: T3, Tau(pS422) fragment SEQ ID NO: 03; assay: ELISA
Procedure: as §1

[7] = target: T3, Tau(pS422) fragment SEQ ID NO: 03; assay: ELISA
Procedure: Non-biotinylated peptide/protein/aggregate was added to non-coated Maxisorb plates, biotinylated peptide/protein/aggregate in PBS was added to streptavidin-coated Maxisorb plates, and plates were incubated over-night. The supernatant was discarded and the wells washed three times with 90 μl wash buffer (1x PBS/0.1% Tween 20). Remaining reactive spots were blocked with blocking buffer (1x PBS/2% BSA (Bovine Serum Albumin Fraction V, fatty acid free, Roche, Cat. No.: 10735078001)/0.05% Tween 20) by incubating for 1 hour. The supernatant was discarded and the wells washed three times with 90 μl wash buffer. Samples and control antibody were prepared in 12 dilutions (1:2) in ELISA buffer (1×PBS/0.5% BSA (Bovine Serum Albumin Fraction V, fatty acid free, Roche, Cat. No.: 10735078001)/0.05% Tween 20) with a start concentration of 500 ng/mL. The incubation time was 60 minutes at room temperature on a shaker. The supernatant was discarded and the wells washed three times with 90 μl wash buffer. Solutions of secondary antibody were prepared in ELISA buffer. A total of 25 μl antibody-mix was transferred to all wells of the assay plate and the plate was thereafter incubated on shaker for 60 minutes at room temperature. The supernatant was discarded and the wells were washed three times with 90 μl wash buffer. 25 μl of ABTS solution was added to all wells. The absorbance was read at 405 nm-492 nm.

[8] = target: T3, Tau(pS422) fragment SEQ ID NO: 03; assay: ELISA, ratio of EC50 values
Procedure: Rabbit monoclonal antibodies were recombinantly expressed in HEK293 cells. […] For preparation of ELISA plates, streptavidin pre-coated microtiter plates were incubated with biotinylated tau (415-430)[pS422] at 50 ng/ml for 1 hour at room temperature. Coating with KLH or control peptides was performed at 1 μg/ml. Rabbit anti-Tau(pS422) antibody (Abcam AB51071) or rabbit antibody containing supernatants were incubated in the antigen labeled microtiter plates for 60 minutes at various concentrations. After intensive washing, the binding of the rabbit antibodies was detected using a sheep anti-rabbit IgG […] conjugated detection antibody (Chemicon AQ301D). After incubation with TMB at room temperature absorbance at 370 nm-492 nm was measured. The antibody binding was characterized by its EC₅₀ values. […] Cross-reactivity with KLH or MCAK phosphopeptide was estimated by single-point measurement at high concentrations, i.e., at 1:5 dilution of the cell culture supernatants. […] Binding to KLH and MCAK control phosphopeptide was at background level with all antibodies, which is about 1 to 3% of the maximal value measures with tau phosphopeptide.

T1 sequence (P10636 other isoform, or with tags, fused parts or gaps limits assumed): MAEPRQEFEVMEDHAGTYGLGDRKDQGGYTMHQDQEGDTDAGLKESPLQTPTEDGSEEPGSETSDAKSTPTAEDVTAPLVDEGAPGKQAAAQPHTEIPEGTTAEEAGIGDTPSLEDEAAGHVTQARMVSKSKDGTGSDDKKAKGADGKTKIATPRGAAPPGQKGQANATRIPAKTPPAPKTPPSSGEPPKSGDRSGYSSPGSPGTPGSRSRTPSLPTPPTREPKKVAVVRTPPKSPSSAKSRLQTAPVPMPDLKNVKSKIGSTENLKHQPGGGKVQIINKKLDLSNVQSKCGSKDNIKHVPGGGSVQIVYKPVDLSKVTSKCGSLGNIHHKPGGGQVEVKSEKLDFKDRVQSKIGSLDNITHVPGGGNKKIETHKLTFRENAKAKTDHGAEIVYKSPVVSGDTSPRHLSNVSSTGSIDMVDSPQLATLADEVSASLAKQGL

binding result [1]: no binding (tested: 1000 ng/ml)
B1: VH32/VL21 (antibody, V domains shown)
VH: EVQVLESGGGLVQPGGSLRLSCAVSGFSLSSNAINWVRQAPGKGLEWVGYIAVSGNTYYASWAKGRFTISRDNSKNTVYLQMNSLRAEDTAVYYCGKSNIWGQGTLVTVSS
VL: AQVMTQSPSSLSASVGDRVTITCRSSQSVRTNKLAWFQQKPGQPPKRLIYSASTLDFGVPSRFSGSGSGTEFTLTISSLQPEDFATYYCLGYFDSSADIVAFGGGTKVEIK
notes: full size IgG

Kd [2]: 0.3 nM
koff [2]: 0.000143 s⁻¹
kon [2]: 410000 M⁻¹ s⁻¹
B2: VH35H5/VL31A1 Fab fragment (Fab, V domains shown)
VH: B1 VH with F27I
VL: B1 VL with T31N, T54D, F57Y

Kd [3]: 1.62 nM
koff [3]: 0.000616 s⁻¹
kon [3]: 380000 M⁻¹ s⁻¹
OD@1 µg/mL [4]: 1.03 OD
OD@1 µg/mL [5]: 0.04 OD
EC50 [6]: 0.033 µg/mL
B3: VH35H5/VL31A1 (antibody, V domains shown)
VH: B1 VH with F27I
VL: B1 VL with T31N, T54D, F57Y
notes: IgG captured via anti-human Fc; also called antibody 1

OD@1 µg/mL [4]: 0.44 OD
OD@1 µg/mL [5]: 0.04 OD
B4: VH76A6/VL145B12 (antibody, V domains shown)
VH: B1 VH with S31N, N32S
VL: B1 VL with T31S, S51A, T54N
notes: IgG captured via anti-human Fc

binding result [1]: no binding (tested: 1000 ng/ml)
EC50 [7]: 0.0056 µg/mL
OD@1 µg/mL [4]: 2.26 OD
OD@1 µg/mL [5]: 0.14 OD
EC50 [6]: 0.0404 µg/mL
B5: VH32/VL22 (antibody, V domains shown)
VH: B1 VH
VL: B1 VL with K33R, F57Y
notes: full size IgG

Kd [2]: 0.6 nM
koff [2]: 0.000276 s⁻¹
kon [2]: 479000 M⁻¹ s⁻¹
B6: VH32/VL22 Fab fragment (Fab, V domains shown)
VH: B1 VH
VL: B1 VL with K33R, F57Y

Kd [2]: 0.1 nM
koff [2]: 6.03e-05 s⁻¹
kon [2]: 423000 M⁻¹ s⁻¹
B7: VH35H5/VL49G1 Fab fragment (Fab, V domains shown)
VH: B1 VH with F27I
VL: B1 VL with T31S, T54N, F57Y

OD@1 µg/mL [4]: 1.13 OD
OD@1 µg/mL [5]: 0.04 OD
EC50 [6]: 0.0273 µg/mL
B8: VH32/VL4G1 (antibody, V domains shown)
VH: B1 VH
VL: B1 VL with S96P

Kd [3]: 2.29 nM
koff [3]: 0.000321 s⁻¹
kon [3]: 140000 M⁻¹ s⁻¹
OD@1 µg/mL [4]: 1.31 OD
OD@1 µg/mL [5]: 0.04 OD
EC50 [6]: 0.0452 µg/mL
B9: VH35H5/VL35F2 (antibody, V domains shown)
VH: B1 VH with F27I
VL: B1 VL with S96P, A97L
notes: as for B4

OD@1 µg/mL [4]: 0.07 OD
OD@1 µg/mL [5]: 0.04 OD
B10: VH76A6/VL35G4 (antibody, V domains shown)
VH: B1 VH with S31N, N32S
VL: B1 VL with L90A, D94E, S95A, S96P
notes: as for B4

Kd [3]: 2 nM
koff [3]: 0.000624 s⁻¹
kon [3]: 312000 M⁻¹ s⁻¹
OD@1 µg/mL [4]: 1.42 OD
OD@1 µg/mL [5]: 0.04 OD
EC50 [6]: 0.034 µg/mL
B11: VH35H5/VL49G1 (antibody, V domains shown)
VH: B1 VH with F27I
VL: B1 VL with T31S, T54N, F57Y
notes: IgG captured via anti-human Fc; also called antibody 2

OD@1 µg/mL [4]: 0.07 OD
OD@1 µg/mL [5]: 0.04 OD
B12: VH32/VL35G4 (antibody, V domains shown)
VH: B1 VH
VL: B1 VL with L90A, D94E, S95A, S96P
notes: as for B4

OD@1 µg/mL [4]: 0.54 OD
OD@1 µg/mL [5]: 0.04 OD
B13: VH00/VL00 (antibody, V domains shown)
VH: QSVEESGGRLVTPGTPLTLTCTVSGFSLSSNAINWVRQAPGKGLEWIGYIAVSGNTYYASWAKGRFTISKASTTVDLKMTSPTAEDTGTYFCGKSNIWGPGTLVTVSL
VL: AQVLTQTTSPVSAAVGSTVTISCQSSQSVRTNKLAWFQQKPGQPPKRLIYSASTLDFGVPSRFSASGSGTQFTLTISDVQCDDAATYYCLGYFDCSIADCVAFGGGTEVVVK
notes: variable domains of rabbit mAb 086; also called VH00 with VL00 (rabbit antibody); parental rabbit antibody

selectivity for phosphorylated tau fragment compared to non-phosphorylated tau peptide [8]: ≥ 100 fold
B14: mAb 086 (antibody, V domains shown)
VH: B13 VH
VL: B13 VL
notes: also called rabbit antibody 086

Source: patent publication US20180079804A1 (Hoffmann-La Roche, published 2018)
